Results: US20220169682A1 (PARIS SCIENCES ET LETTRES, published 2022)

Molecular target: T1, FKBP-NFAST (UniProt P62942 2-108)
T1 construct: Expressed in HEK293T cells; also called cmyc-FKBP-linker-NFAST; pAG149; not shown: c-myc tag
Assay: split-FAST fluorescence complementation, confocal imaging of HEK293T cells, 100 nM rapamycin, HMBR or HBR-3,5DOM
Description: FIG. 5A-B show HEK293T cells co-expressing FKBP-NFAST and FRB-CFASTn (n=10 or 11) which were labeled with 5 μM HMBR (FIG. 5A) or 10 μM HBR-3,5DOM (FIG. 5B) and imaged before and after addition of 100 nM rapamycin. Scale bars 10 μm. […] Cells expressing FAST were used as control. HMBR concentration was 10 μM. Excitation at 488 nm at 6.3 kW/cm2. Six cells were analyzed per condition. […] Scale bars 20 μm. […] Scale bars 20 μm.

T1 sequence (P62942 other isoform, or with tags, fused parts or gaps): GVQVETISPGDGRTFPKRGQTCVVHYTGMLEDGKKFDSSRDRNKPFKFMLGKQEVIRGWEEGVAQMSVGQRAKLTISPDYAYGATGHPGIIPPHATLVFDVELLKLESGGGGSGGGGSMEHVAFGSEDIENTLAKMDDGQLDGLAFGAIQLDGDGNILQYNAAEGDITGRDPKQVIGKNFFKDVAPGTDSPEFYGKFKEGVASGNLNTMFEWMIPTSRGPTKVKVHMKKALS

Row | Binder | binding result
1 | FRB-CFAST11 (other, Expressed in HEK293T cells; also called cmyc-FRB-linker-CFAST(115-125); pAG152; not shown: c-myc tag) ILWHEMWHEGLEEASRLYFGERNVKGMFEVLEPLHAMMERGPQTLKETSFNQAYGRDLMEAQEWCRKYMKSGNVKDLTQAWDLYYHVFRRISKSGGGGSGGGGSGDSYWVFVKRV | binds
2 | FRB-CFAST10 (other, also called FRB-CFASTn (n=10)) ILWHEMWHEGLEEASRLYFGERNVKGMFEVLEPLHAMMERGPQTLKETSFNQAYGRDLMEAQEWCRKYMKSGNVKDLTQAWDLYYHVFRRISKSGGGGSGGGGSGDSYWVFVKR | binds
